# Measured values published in PMC7482062.
# Tests used:
# [1] = target: P113 (Plasmodium falciparum) (UniProt Q8ILP3); conditions: cited from earlier work
# [2] = target: P113 N-terminal fragment D106K E107K mutant, biotinylated bait (Plasmodium falciparum (3D7 strain)) (UniProt Q8ILP3); assay: SPR; […]; Biacore 8K, 37°C, HBS-EP
Substance,Kd [1],fold reduction in dissociation half-life against wild type [2]
RH5 (from UniProt Q8IFM5),300 nM,–
"RH5, purified monomeric protein (from UniProt Q8IFM5 25-526) (ligand)",–,2 fold
